Data on 167 variants can be found in the RNAGym collection of RNA variant scans (doi:10.1021/acssynbio.7b00057).

To fix the notation:
B1: Pistol ribozyme (parent)
chain: GGGUCGUUGUUCCAUAAUCGCGUGGAUAUGGCACGCAAGUUUCUACCGGGCACCGUAAAUGUCCGACUGGAGCCGUUCGGGCGGCUAUAAACAGACCUCAGGCCCGAAGCGUGGCGGCACCUGCCGCCGGUGGUAAAAAAGAUCGGAAGAGCACACGUCU

The variants in this data set derive from B1. Description: aptazyme ON/OFF ratio, guanine; higher = stronger switching; co-transcriptional cleavage with and without guanine.
With U7A U8C U10C U11C C12U C13A, the “aptazyme ON/OFF ratio” value turned out to be 1.06.
With U7A U8C U10C U11C C12U C13U the figure was 1.07; with U7A U8C U10C U11C C12U C13G, 1.23; with U7A U8C G9U U10C, 1.55.
With U7A U8C G9U U10G the figure was 3.16; with U7A U8C U10C U11C C12G C13U, 1.09; with U7A U8C U10C U11C C12G C13A, 1.12.
With U7A U8C U10C U11C C12G C13G the figure was 1.1; with U7A U8C U10A C13A, 1.06.
For U7A U8C U10A C13G, the “aptazyme ON/OFF ratio” value is 1.01.
With U7A U8C U10A C13U the figure was 1.05; with U7A U8C G9U U10G U11C C13G, 1.08; with U7A U8C G9U U10G U11C C13U, 1.03.
With U7A U8C G9U U10G U11C C13A, the “aptazyme ON/OFF ratio” value came out at 1.17.
With U7A U8C U10C U11G C12A C13G the figure was 1.28.
With U7A U8C U10C U11G C12A C13A the figure was 1.33; with U7A U8C U10C U11G C12A C13U, 1.18; with U7A U8C G9U U11C C13G, 1.03.
Regarding U7A U8C G9U U11C C13U, the “aptazyme ON/OFF ratio” value is 1.05.
With U7A U8C G9U U11C C13A the figure was 1.04.
In the case of U7A U8C U10C U11G, the “aptazyme ON/OFF ratio” value came to 1.26.
With U7A U8C U10C U11A the figure was 1.16.
With U7A U8C U10C U11C, the “aptazyme ON/OFF ratio” value amounted to 1.04.
With U7A U8C G9U U10G C12G C13U the figure was 1.28.
For U7A U8C G9U U10G C12G C13A, the “aptazyme ON/OFF ratio” value came to 1.19.
With U7A U8C G9U U10G C12G C13G the figure was 1.14.
With U7A U8C G9U U10C U11G C12U C13A the figure was 1.15.
With U7A U8C G9U U10C U11G C12U C13U the figure was 1.18; with U7A U8C G9U U10C U11G C12U C13G, 1.18.
With U7A U8C G9U U11G C12A, the “aptazyme ON/OFF ratio” value is 1.09.
With U7A U8C G9U U11G C12G the figure was 1.16.
With U7A U8C G9U U11G C12U the figure was 1.35; with U7A U8C U10C C12U, 3.63.
With U7A U8C U10C C12G the figure was 1.46; with U7A U8C U10C C12A, 1.32.
As to U7A U8C U10A U11C C12A C13A, the “aptazyme ON/OFF ratio” value amounted to 1.07.
With U7A U8C U10A U11C C12A C13G, the “aptazyme ON/OFF ratio” value turned out to be 1.17.
With U7A U8C U10A U11C C12A C13U the figure was 1.08.
With U7A U8C G9U U10C U11G C13G the figure was 1.31; with U7A U8C G9U U10C U11G C13U, 1.25.
With U7A U8C G9U U10C U11G C13A the figure was 1.17; with U7A U8C U10C U11A C12U C13G, 1.19.
As for U7A U8C U10C U11A C12U C13A, the “aptazyme ON/OFF ratio” value worked out at 1.21.
With U7A U8C U10C U11A C12U C13U the figure was 1.27; with U7A U8C G9U U10G U11A, 1.06.
With U7A U8C G9U U10G U11G the figure was 1.11.
With U7A U8C G9U U10G U11C the figure was 1.03.
In the case of U7A U8C G9U U10C U11A C12G C13A, the “aptazyme ON/OFF ratio” value turned out to be 1.11.
With U7A U8C G9U U10C U11A C12G C13U the figure was 1.11.
As to U7A U8C G9U U10C U11A C12G C13G, the “aptazyme ON/OFF ratio” value was 1.22.
With U7A U8C G9U U10C U11G C12G the figure was 1.06; with U7A U8C G9U U10C U11G C12A, 1.04; with U7A U8C G9U U10C U11G C12U, 1.17.
With U7A U8C G9U U10G U11G C13U the figure was 1.17; with U7A U8C G9U U10G U11G C13A, 1.18; with U7A U8C G9U U10G U11G C13G, 1.14.
With U7A U8C U10C U11A C12G C13U the figure was 1.21.
U7A U8C U10C U11A C12G C13A: the “aptazyme ON/OFF ratio” value was 1.17.
With U7A U8C U10C U11A C12G C13G the figure was 1.22; with U7A U8C U10C C12A C13U, 1.26; with U7A U8C U10C C12A C13A, 1.25.
With U7A U8C U10C C12A C13G the figure was 1.15; with U7A U8C U10C U11A C12G, 1.28.
With U7A U8C U10C U11A C12A the figure was 1.29; with U7A U8C U10C U11A C12U, 1.19.
Consider U7A U8C U10C C13A, for which the “aptazyme ON/OFF ratio” value is 1.08.
With U7A U8C U10C C13G the figure was 1.32.
For the variant U7A U8C U10C C13U, the “aptazyme ON/OFF ratio” value was 2.97.
With U7A U8C G9U U10G U11G C12A C13U the figure was 1.37; with U7A U8C G9U U10G U11G C12A C13G, 1.11.
With U7A U8C G9U U10G U11G C12A C13A the figure was 1.12.
With U7A U8C G9U U11A C12U the figure was 1.28.
On to U7A U8C G9U U11A C12A, for which the “aptazyme ON/OFF ratio” value came out at 1.32.
With U7A U8C G9U U11A C12G the figure was 1.23; with U7A U8C G9U U10A U11G C12U, 1.35.
With U7A U8C G9U U10A U11G C12G the figure was 1.12; with U7A U8C G9U U10C C12U C13A, 1.19; with U7A U8C G9U U10C C12U C13G, 1.09.
With U7A U8C G9U U10C C12U C13U the figure was 1.16.
In the case of U7A U8C U10A C12U C13A, the “aptazyme ON/OFF ratio” value stood at 1.11.
As to U7A U8C U10A C12U C13G, the “aptazyme ON/OFF ratio” value turned out to be 1.08.
With U7A U8C U10A C12U C13U the figure was 1.22; with U7A U8C U10G U11A, 1.14.
In the case of U7A U8C G9U U10G U11A C12U C13U, the “aptazyme ON/OFF ratio” value was 1.2.
With U7A U8C G9U U10G U11A C12U C13G the figure was 1.09; with U7A U8C G9U U10G U11A C12U C13A, 1.06.
With U7A U8C G9U U10G U11A C12A the figure was 1.14; with U7A U8C G9U U10G U11A C12G, 1.21.
With U7A U8C G9U U10G U11A C12U the figure was 1.
Regarding U7A U8C G9U U11A C12A C13A, the “aptazyme ON/OFF ratio” value was determined as 1.42.
Consider U7A U8C G9U U11A C12A C13U, for which the “aptazyme ON/OFF ratio” value amounted to 1.33.
With U7A U8C G9U U11A C12A C13G the figure was 1.24.
With U7A U8C U10G C12U the figure was 1.27; with U7A U8C U10G C12A, 1.21.
With U7A U8C U10G C12G the figure was 1.12; with U7A U8C U10G C12A C13U, 1.15; with U7A U8C U10G C12A C13G, 1.05.
With U7A U8C U10G C12A C13A, the “aptazyme ON/OFF ratio” value was determined as 1.13.
With U7A U8C G9U U10A U11G C13U the figure was 1.23; with U7A U8C G9U U10A U11G C13G, 1.1.
As for U7A U8C G9U U10A U11G C13A, the “aptazyme ON/OFF ratio” value is 1.17.
With U7A U8C U10C U11C C12G the figure was 1.19; with U7A U8C U10C U11C C12A, 1.14.
With U7A U8C U10C U11C C12U the figure was 1.04; with U7A U8C U10C U11G C12G C13G, 1.24.
With U7A U8C U10C U11G C12G C13A the figure was 1.26; with U7A U8C U10C U11G C12G C13U, 1.14.
Turning to U7A U8C G9U U10C U11G C12G C13A, the “aptazyme ON/OFF ratio” value is 1.17.
With U7A U8C G9U U10C U11G C12G C13U the figure was 1.06; with U7A U8C G9U U10C U11G C12G C13G, 1.11.
With U7A U8C G9U U11G C12A C13G the figure was 1.27.
With U7A U8C G9U U11G C12A C13A the figure was 1.22; with U7A U8C G9U U11G C12A C13U, 1.17; with U7A U8C U10A U11C C13G, 1.05.
Turning to U7A U8C U10A U11C C13A, the “aptazyme ON/OFF ratio” value was determined as 1.05.
With U7A U8C U10A U11C C13U the figure was 1.02.
With U7A U8C G9U U10C U11C C12A C13G the figure was 1.18; with U7A U8C G9U U10C U11C C12A C13U, 1.06; with U7A U8C G9U U10C U11C C12A C13A, 1.09.
With U7A U8C G9U U11G C13A the figure was 1.2.
For the variant U7A U8C G9U U11G C13G, the “aptazyme ON/OFF ratio” value worked out at 1.12.
For the variant U7A U8C G9U U11G C13U, the “aptazyme ON/OFF ratio” value turned out to be 1.27.
With U7A U8C G9U U10C U11C the figure was 0.995; with U7A U8C G9U U10C U11G, 1.22; with U7A U8C G9U U10C U11A, 1.23.
With U7A U8C U10A U11G C12U C13U the figure was 1.26; with U7A U8C U10A U11G C12U C13A, 1.28.
With U7A U8C U10A U11G C12U C13G the figure was 1.16; with U7A U8C U10A U11A C13A, 1.2; with U7A U8C U10A U11A C13U, 1.12.
U7A U8C U10A U11A C13G: the “aptazyme ON/OFF ratio” value was found to be 1.29.
Consider U7A U8C U10C C12U C13U, for which the “aptazyme ON/OFF ratio” value worked out at 1.38.
Regarding U7A U8C U10C C12U C13A, the “aptazyme ON/OFF ratio” value was determined as 1.17.
Turning to U7A U8C U10C C12U C13G, the “aptazyme ON/OFF ratio” value came to 1.26.
With U7A U8C G9U U10G U11C C12U C13U the figure was 1.09; with U7A U8C G9U U10G U11C C12U C13A, 1.2; with U7A U8C G9U U10G U11C C12U C13G, 1.19.
With U7A U8C G9U U11G C12U C13U the figure was 1.28.
With U7A U8C G9U U11G C12U C13G the figure was 1.14; with U7A U8C G9U U11G C12U C13A, 1.22.
In the case of U7A U8C G9U U10C U11C C12U C13G, the “aptazyme ON/OFF ratio” value is 1.08.
With U7A U8C G9U U10C U11C C12U C13U the figure was 1.1; with U7A U8C G9U U10C U11C C12U C13A, 1.05; with U7A U8C G9U U11G C12G C13A, 1.22.
For U7A U8C G9U U11G C12G C13U, the “aptazyme ON/OFF ratio” value came out at 1.07.
On to U7A U8C G9U U11G C12G C13G, for which the “aptazyme ON/OFF ratio” value is 1.16.
In the case of U7A U8C U10G C13A, the “aptazyme ON/OFF ratio” value worked out at 1.4.
With U7A U8C U10G C13G the figure was 1.24; with U7A U8C U10G C13U, 1.31; with U7A U8C U10C U11G C12U C13A, 1.28.
With U7A U8C U10C U11G C12U C13U the figure was 1.28; with U7A U8C U10C U11G C12U C13G, 1.16.
With U7A U8C U10A U11G C13U the figure was 1.31; with U7A U8C U10A U11G C13G, 1.24.
For the variant U7A U8C U10A U11G C13A, the “aptazyme ON/OFF ratio” value is 1.26.
With U7A U8C U10C the figure was 2.24; with U7A U8C U10A, 1.06; with U7A U8C U10G, 1.47.
U7A U8C G9U U10G C13G: the “aptazyme ON/OFF ratio” value was found to be 1.16.
With U7A U8C G9U U10G C13U the figure was 1.24; with U7A U8C G9U U10G C13A, 1.34; with U7A U8C G9U U10C U11A C13A, 1.1.
On to U7A U8C G9U U10C U11A C13U, for which the “aptazyme ON/OFF ratio” value stood at 1.12.
With U7A U8C G9U U10C U11A C13G the figure was 1.09.
With U7A U8C U10A U11A the figure was 1.18; with U7A U8C U10A U11G, 1.17; with U7A U8C U10A U11C, 1.03.
